Test results reported in patent publication US20200046641A1, “LIPOSOMES FOR THE TREATMENT OF OCULAR DISEASES” (TDC Technology Dedicated to Care srl, priority 2018, published 2020).

System: inflamed eye of male albino rabbits
Experiment: In vivo treatment of ocular inflammation induced by arachidonic acid sodium salt
Design: species or system rabbit
Settings: 50 μl given 30 minutes after 0.5% arachidonic acid sodium salt; scored 30-210 minutes
Procedure: Inflammation in the eye of male albino rabbits as described in Example 7 is induced by applying a drop of eye drops containing 0.5% arachidonic acid sodium salt (SA-irritating agent) at time 0. After 30 minutes, the sample under examination is administered to the inflamed eye. Finally, the ocular inflammation index is evaluated at different time points. In the present test, the samples under examination were: • I) 50 μl of free lactoferrin (not encapsulated into the lipid bilayer of liposomes) dissolved in PBS (comparative example); • II) 50 μl of F2 liposomes.
As positive control (C+-comparative), a rabbit administered with SA at time 0, without any administration after 30 minutes, has been used.
The ocular inflammation has been evaluated for each time point at 30, 60, 90, 120, 150, 180 and 210 minutes and the inflammation index has been consequently calculated for each time point according to the tables of the previous Example.

B1: lactoferrin (protein, UniProt P02788 20-710, looked up)
Lactotransferrin: GRRRSVQWCAVSQPEATKCFQWQRNMRKVRGPPVSCIKRDSPIQCIQAIAENRADAVTLDGGFIYEAGLAPYKLRPVAAEVYGTERQPRTHYYAVAVVKKGGSFQLNELQGLKSCHTGLRRTAGWNVPIGTLRPFLNWTGPPEPIEAAVARFFSASCVPGADKGQFPNLCRLCAGTGENKCAFSSQEPYFSYSGAFKCLRDGAGDVAFIRESTVFEDLSDEAERDEYELLCPDNTRKPVDKFKDCHLARVPSHAVVARSVNGKEDAIWNLLRQAQEKFGKDKSPKFQLFGSPSGQKDLLFKDSAIGFSRVPPRIDSGLYLGSGYFTAIQNLRKSEEEVAARRARVVWCAVGEQELRKCNQWSGLSEGSVTCSSASTTEDCIALVLKGEADAMSLDGGYVYTAGKCGLVPVLAENYKSQQSSDPDPNCVDRPVEGYLAVAVVRRSDTSLTWNSVKGKKSCHTAVDRTAGWNIPMGLLFNQTGSCKFDEYFSQSCAPGSDPRSNLCALCIGDEQGENKCVPNSNERYYGYTGAFRCLAENAGDVAFVKDVTVLQNTDGNNNEAWAKDLKLADFALLCLDGKRKPVTEARSCHLAMAPNHAVVSRMDKVERLKQVLLHQQAKFGRNGSDCPDKFCLFQSETKNLLFNDNTECLARLHGKTTYEKYLGPQYVAGITNLKKCSTSPLLEACEFLRK
Treatment of ocular inflammation (ocular inflammation score, FIG. 1): not obtained
